According to patent US20190233498A1 (H LUNDBECK A S, published 2019):
Residue numbers refer to the chain shown, from its start.

T1: human PACAP38 (human, not fully specified; C-terminal lysine is amidated; N-terminal or C-terminal biotin in the HTRF and PC-12 cell binding assays)
T1 construct: synthetic peptide, bought; also called huPACAP (1-38)
T1 peptide: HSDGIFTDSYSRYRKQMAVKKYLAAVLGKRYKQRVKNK

T2: human VIP (human)
T2 construct: also called Vasoactive Intestinal Peptide
T2 peptide: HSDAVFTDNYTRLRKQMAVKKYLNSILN

T3: human PACAP27 (human, C-terminal leucine is amidated; 125I-labelled in Example 10)
T3 peptide: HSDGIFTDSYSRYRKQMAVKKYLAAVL

B1: anti-PACAP antibody Ab3 (antibody, human IgG1, kappa, N297A, V domains shown)
VH: QEQLVESGGGLVQPEGSLTLTCTASGFSFSSSDYMCWVRQAPGKGLEWIGCIDAGSSGDTYFASWAKGRFTISKTSSTTVTLQMTSLTAADTATYFCARHLYGSITFAFGLWGQGTLVTVSS
VL: AAVLTQTPSPVSAAVGGTVTINCQASQSIGSDLAWYQQKPGQPPKLLIYDASTLASGVPSRFSGSGSGTQFTLTISGVQCDDAATYYCQGTYYSSGWYTAFGGGTEVVVKR
notes: full-length rabbit/human chimeric antibody
B2: anti-PACAP antibody Ab11 (antibody, human IgG1, kappa, N297A, V domains shown)
VH: QSVEESGGRLVTPGTPLTLTCTASGFSLSRYAMGWVRQAPGKGLEWIGDISTYGTTDYASWVNGRFTISRTSTTVTLKMTSLTTEDTATYFCARDYWLSLWGQGTLVTVSS
VL: AAVLTQTPSPVSAAVGGTVTIKCQSSQSVYDNNALAWYQQKPGQPPKLLIYAASNLASGVPDRFSGSGSGTQFTLTISGVQCDDAATYYCLGGYDDAADNAFGGGTEVVVKR
notes: as for B1
B3: anti-PACAP antibody Ab7 (antibody, human IgG1, kappa, N297A, V domains shown)
VH: B2 VH with F26I, S27D, R30G, Q103P
VL: B2 VL with N55T, D62S, S65K, S78N, A97P
notes: as for B1
B4: anti-PACAP antibody Ab12 (antibody, human IgG1, kappa, N297A, V domains shown)
VH: B2 VH with R30S, N63Y
VL: B2 VL with N55T, D62S, Q72E, D95Y, A97P
notes: as for B1
B5: anti-PACAP antibody Ab13 (antibody, human IgG1, kappa, N297A, V domains shown)
VH: QSVEESGGRLVTPGTPLTLTCTVSGFSLSSAAMNWVRQAPGKGLEWIGIIDNTAGTYYAPWAKGRFTISKTSSTTVDLKMTSPTTEDTATYFCARGGGEFFIWGPGTLVTVSS
VL: AQVLTQTPSSVSAAVGGTVTINCQSSQSVHDGSYLSWYQQKPGQPPNFLIYQASNLASGVPSRFKGSGSGTQFTLTISDLECDDAATYYCAGGYSSNICGFGGGTEVVVKR
notes: as for B1
B6: anti-PACAP antibody Ab14 (antibody, human IgG1, kappa, N297A, V domains shown)
VH: QSVEASGGRLVTPGTPLTLTCTVSGFSLSSAAMNWVRQAPGKGLEWIGFIEYSKNIVYASWAKGRFTISKVSSTTVDLKMTSPTTEDTATYFCARGGGEFFIWGQGTLVTVSS
VL: AQVLTQTPSSVSAAVGGTVTINCQSSQSVYSNNRLSYYQQKPGQPPKLLIYEASSLAYGVPSRFKGSGSGTQFTLTISDLECDDAATYYCAGAYSNSIYSFGGGTEVVVKR
notes: as for B1
B7: anti-PACAP antibody Ab10.H (antibody, V domains shown)
VH: EVQLVESGGGLVQPGGSLRLSCAASGIDLNSYYMTWVRQAPGKGLEWIGFIDAGGDAYYASWAKGRFTISRDNSKNTVYLQMNSLRAEDTAVYFCARDLDLWGQGTLVTVSS
VL: DAQLTQSPSTLSASVGDRVTITCQSSESVYGNYLAWFQQKPGKAPKFLIYEASKLESGVPSRFSGSGSGTEFTLTISSLQPDDFATYYCAGGDISEGVAFGGGTKVEIKR
B8: anti-PACAP antibody Ab10 (antibody, V domains shown)
VH: QSVEESGGRLVTPGTPLTLTCTVSGIDLNSYYMTWVRQAPGKGLEWIGFIDAGGDAYYASWAKGRFTISKTSTTVDLKITSPTTEDTATYFCARDLDLWGQGTLVTVSS
VL: AAVLTQTPSPVSAAVGGTVTINCQSSESVYGNYLAWFQQKPGQPPKLLIYEASKLESGVPSRFSGSGSGTQFTLTISDLQCDDAATYYCAGGDISEGVAFGGGTEVVVKR

How the values were obtained:
human PACAP38 [1] = molecular target: T1, human PACAP38; experiment: SPR, Ab immobilised
Experimental: (§1) Binding affinities of monoclonal antibodies for human PACAP were estimated using SPR on the PROTEON™ XPR36 (Bio-Rad, Hercules, Calif.). Antibody was immobilized to the surface of general amine coupling (“GLC” or “GLM”) Chips (Bio-Rad, Hercules, Calif.). A dilution series of human PACAP38 (SEQ ID NO: 1241) prepared in 1×PBST Buffer (4.3 mM Na Phosphate, 1.4 mM K Phosphate, 135 mM NaCl, 2.7 mM KCl 0.05% Polysorbate-20) purchased from Teknova (Cat# P1192, Teknova, Hollister, Calif.) and supplemented with 0.25 M arginine (from J.T. BAKER®), 0.2 mg/ml BSA (Jackson Immuno Research Labs, West Grove, Pa.), and 0.005% sodium azide (VWR International, Radnor, Pa.) with the pH adjusted to 7 was used to query the antibodies. Antigen (ranging from 1.23 nM to 100 nM) was typically run sequentially with association times of 2-4 minutes and dissociation times of 3-120 minutes grouped with the PROTEON™ Manager Software (v3.1.0.6 (Bio-Rad, Hercules, Calif.)) and fitted using a 1:1 Langmuir binding model. Surfaces were regenerated between analyte queries using 0.85% Phosphoric Acid.

human VIP = molecular target: T2, human VIP; experiment: SPR, Ab immobilised
Experimental: [The procedure below names another target; the source says it served here with some conditions changed.] as §1

human PACAP27 [2] = molecular target: T3, human PACAP27; experiment: SPR, Ab immobilised
Experimental: [The procedure below names another target; the source says it served here with some conditions changed.] as §1

human PACAP38 [3] = molecular target: T1, human PACAP38; experiment: cell-based or functional assay
human PACAP27 [4] = molecular target: T3, human PACAP27; experiment: cell-based or functional assay
human PACAP38 [5] = molecular target: T1, human PACAP38; experiment: cell-based or functional assay
human PACAP38 [6] = molecular target: T1, human PACAP38; experiment: HTRF binding, biotin-PACAP38
Experimental: In parallel, 10 μl of an antibody dilution series (highest final concentration of 100 nM) were incubated with 10 μl of N-terminal or C-terminal biotinylated PACAP38 (35 nM final) alone, or in combination with either PACAP27 (350 nM final) or VIP (350 nM final), i.e., 10× PACAP27 or 10×VIP, respectively, in a HTRF plate. 20 μl of Eu³⁺ cryptate labeled anti-hu Fc donor and 20 μl of d2-labeled streptavidin acceptor were added to each well and incubated for 1 hour at room temperature. Fluorescence was measured at 620 and 665 nm with a delay of 300 μsec.
EC₅₀ values, i.e. the concentration of an antibody that yields a response halfway between the baseline and the maximum value within a specified time period, were computed for each antibody based upon their binding curves and are shown in Table 1 below. […] A humanized form of antibody Ab1 was produced and is identified by an appended “.H”, i.e., Ab1.H, and it also bound PACAP38 with high affinity.

human PACAP38 [7] = molecular target: T1, human PACAP38; experiment: cell-based or functional assay
human PACAP38 [8] = molecular target: T1, human PACAP38; experiment: inhibition of 100 nM biotin-PACAP38 binding to PC-12 cells, TRF
Experimental: To identify antibodies that block PACAP38 binding to PAC1-R-expressing cells, adherent PC-12 cells (ATCC, Manassas, Va.) expressing PAC1-R were used in a Europium-based PAC1-R expressing cells binding assay.
Antibody solutions were incubated with N-terminal biotinylated PACAP38 at 10× the final concentration (100 nM or 30 nM) for 1 hr, then added to PC-12 cells that were plated 24 hrs. prior in black clear bottom 96 well plates (COSTAR™, Corning Incorporated, Corning, N.Y.) and further incubated for 1 hr at room temperature. After three washes, the cells were incubated with 20 μl Europium-labeled streptavidin (PerkinElmer, Waltham, Mass.) for 1 hr at room temperature. Cells were washed three times, then 20 μl DELFIA® Enhancement solution (PerkinElmer, Waltham, Mass.) was added to each well and incubated for 15 minutes with gentle shaking. Plates were read (Time Resolved Fluorescence (“TRF”)) on SPECTRAMAX® (Molecular Devices, Sunnyvale, Calif.) plate reader.
FIGS. 14A-14BB are representative of the inhibition curves obtained by this method (results are shown for Ab1, Ab2, Ab3, Ab4, Ab5, Ab6, Ab7, Ab8, Ab9, Ab10, Ab11, Ab12, Ab13, Ab14, Ab15, Ab16, Ab17, Ab18, Ab19, Ab1.H, Ab10.H, Ab22, Ab23, Ab3.H, Ab4.H, Ab5.H, Ab9.H, and Ab12.H, respectively) wherein the PAC1-R expressing cells were PC-12 cells.

| Binder | Kd (human PACAP38 [1]) | koff (human PACAP38 [1]) | kon (human PACAP38 [1]) | Kd (human VIP) | koff (human VIP) | Kd (human PACAP27 [2]) | koff (human PACAP27 [2]) | kon (human PACAP27 [2]) | IC50, 0.1 nM PACAP38-induced PAC1-R mediated cAMP increase (human PACAP38 [3]) | IC50, 0.1 nM PACAP27-induced PAC1-R mediated cAMP increase (human PACAP27 [4]) | IC50, 5 nM PACAP38-induced human VPAC1-R mediated cAMP increase (human PACAP38 [5]) | EC50 (human PACAP38 [6]) | IC50, 1 nM PACAP38-induced human VPAC2-R mediated cAMP increase (human PACAP38 [7]) | IC50 (human PACAP38 [8]) | kon (human VIP) |
| --- | --- | --- | --- | --- | --- | --- | --- | --- | --- | --- | --- | --- | --- | --- | --- |
| B1 | 0.16 nM | 4.2e-05 s⁻¹ | 260000 M⁻¹ s⁻¹ | 100000 µM | 0.1 s⁻¹ | 0.37 nM | 0.00014 s⁻¹ | 370000 M⁻¹ s⁻¹ | 0.227 nM | 0.09 nM | 0.00174 µM | 0.00045 µM | 0.000667 µM | 0.0172 µM | – |
| B2 | 0.11 nM | 3.1e-05 s⁻¹ | 270000 M⁻¹ s⁻¹ | 0.23 µM | 0.047 s⁻¹ | 0.42 nM | 0.00011 s⁻¹ | 260000 M⁻¹ s⁻¹ | 0.0567 nM | 0.109 nM | 0.000541 µM | 0.00053 µM | 0.000265 µM | 0.0246 µM | 200000 M⁻¹ s⁻¹ |
| B3 | ≤ 0.056 nM | ≤ 1e-05 s⁻¹ | 180000 M⁻¹ s⁻¹ | 0.034 µM | 0.0088 s⁻¹ | 0.2 nM | 4.5e-05 s⁻¹ | 230000 M⁻¹ s⁻¹ | 0.111 nM | 0.0458 nM | 0.000687 µM | 0.00045 µM | 0.000162 µM | 0.022 µM | 260000 M⁻¹ s⁻¹ |
| B4 | ≤ 0.032 nM | ≤ 1e-05 s⁻¹ | 310000 M⁻¹ s⁻¹ | 0.0082 µM | 0.0024 s⁻¹ | 0.07 nM | 2.1e-05 s⁻¹ | 290000 M⁻¹ s⁻¹ | 0.0511 nM | 0.0604 nM | 0.000292 µM | 0.00051 µM | 0.000179 µM | 0.0226 µM | 290000 M⁻¹ s⁻¹ |
| B5 | 0.064 nM | 2.7e-05 s⁻¹ | 420000 M⁻¹ s⁻¹ | 0.14 µM | 0.046 s⁻¹ | 0.12 nM | 6.6e-05 s⁻¹ | 540000 M⁻¹ s⁻¹ | 0.0824 nM | 0.0741 nM | 0.00218 µM | 0.00048 µM | 0.000652 µM | 0.0531 µM | 320000 M⁻¹ s⁻¹ |
| B6 | ≤ 0.031 nM | ≤ 1e-05 s⁻¹ | 320000 M⁻¹ s⁻¹ | 0.25 µM | 0.067 s⁻¹ | 0.074 nM | 2e-05 s⁻¹ | 270000 M⁻¹ s⁻¹ | 0.154 nM | 0.0957 nM | 0.00263 µM | 0.00057 µM | 0.00084 µM | 0.0179 µM | 270000 M⁻¹ s⁻¹ |
| B7 | 0.029 nM | 1e-05 s⁻¹ | – | – | – | – | – | – | – | – | – | – | – | – | – |
| B8 | – | – | – | – | – | 0.01 nM | 1e-05 s⁻¹ | – | – | – | – | – | – | – | – |
